Experimental findings from PMC10992996, “Human CRB1 and CRB2 form homo- and heteromeric protein complexes in the retina” (Life Science Alliance, 2024) are described below.

The target in the assay is T1, CRB1-FLAG p.Y1161C (human, UniProt P82279 26-1406, p.Y1161C).
T1 construct: Crumbs homolog 1, canonical form, human, cDNA NM_202153 as printed, with a patient missense mutation; Made by site-directed mutagenesis of m1; also called CRB1 p.Y1161C; CRB1-FLAG MT; source: HEK293T, transfected, in lysate; not shown: Strep-Strep-FLAG, N-terminal, kept
T1 sequence (looked up): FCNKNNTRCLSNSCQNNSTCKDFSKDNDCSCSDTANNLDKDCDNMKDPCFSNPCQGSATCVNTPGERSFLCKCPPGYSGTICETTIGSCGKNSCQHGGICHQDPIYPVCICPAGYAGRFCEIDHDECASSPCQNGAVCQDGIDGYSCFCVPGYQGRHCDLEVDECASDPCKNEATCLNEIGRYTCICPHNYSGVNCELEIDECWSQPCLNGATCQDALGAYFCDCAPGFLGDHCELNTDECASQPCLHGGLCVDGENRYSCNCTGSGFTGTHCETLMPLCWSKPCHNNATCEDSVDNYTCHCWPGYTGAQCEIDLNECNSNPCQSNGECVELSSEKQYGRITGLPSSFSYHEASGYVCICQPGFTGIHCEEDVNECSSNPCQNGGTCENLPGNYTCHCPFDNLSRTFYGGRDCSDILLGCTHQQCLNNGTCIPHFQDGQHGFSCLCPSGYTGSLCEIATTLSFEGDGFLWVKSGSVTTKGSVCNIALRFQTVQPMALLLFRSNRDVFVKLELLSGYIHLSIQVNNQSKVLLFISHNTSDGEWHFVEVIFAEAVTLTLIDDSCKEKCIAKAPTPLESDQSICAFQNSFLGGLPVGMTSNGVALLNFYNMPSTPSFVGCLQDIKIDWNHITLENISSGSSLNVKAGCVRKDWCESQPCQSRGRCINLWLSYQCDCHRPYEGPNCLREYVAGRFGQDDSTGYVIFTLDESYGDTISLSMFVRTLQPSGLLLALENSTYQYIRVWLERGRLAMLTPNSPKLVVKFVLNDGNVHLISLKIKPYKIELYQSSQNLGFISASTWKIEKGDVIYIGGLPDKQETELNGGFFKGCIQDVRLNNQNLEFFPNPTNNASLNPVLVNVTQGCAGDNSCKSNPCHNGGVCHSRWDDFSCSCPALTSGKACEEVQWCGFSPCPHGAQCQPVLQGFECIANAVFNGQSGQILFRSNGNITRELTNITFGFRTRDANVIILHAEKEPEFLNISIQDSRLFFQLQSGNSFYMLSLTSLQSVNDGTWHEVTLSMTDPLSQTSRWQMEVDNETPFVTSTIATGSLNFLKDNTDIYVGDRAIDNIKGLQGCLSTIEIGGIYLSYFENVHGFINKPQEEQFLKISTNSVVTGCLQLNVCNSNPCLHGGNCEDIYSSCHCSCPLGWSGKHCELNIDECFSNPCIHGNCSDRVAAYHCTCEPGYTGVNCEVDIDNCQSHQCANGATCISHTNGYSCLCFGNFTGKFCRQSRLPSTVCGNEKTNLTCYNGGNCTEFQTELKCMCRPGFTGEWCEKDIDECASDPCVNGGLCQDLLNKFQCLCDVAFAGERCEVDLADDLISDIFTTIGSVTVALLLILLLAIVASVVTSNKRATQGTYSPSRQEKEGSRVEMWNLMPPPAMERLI
As to the kind of experiment: co-IP; HEK293T cells co-transfected pairwise with a FLAG and an HA construct, 48 h; lysis in TBS (30 mM Tris-HCl pH 7.4, 150 mM NaCl) with 0.5% Nonidet P40; FLAG-IP on ANTI-FLAG M2 Affinity Gel 60-90 min at 4°C, elution with FLAG peptide; Western blot with HA and FLAG antibodies; for mutants HA/FLAG signal in eluates relative to WT, three biological replicates. The settings on record: partners not purified. Background: A western blot detects proteins with antibodies after separation by electrophoresis.

B1: Human canonical CRB2 (Crumbs homolog 2) (natural protein)
chain: not shown
notes: Crumbs homolog 2, human, cDNA NM_173689; Stood as bait (FLAG copy) and as prey (HA copy) in the pairwise co-IP matrix; each copy carries only one of the two tags; The FLAG copy was the bait of the mass spectrometry pull-downs; also called CRB2-FLAG; CRB2-HA; source: HEK293T, transfected, in lysate (co-IP); HEK293T, transfected, FLAG-IP on beads, washed and purified with 0.01% SDS (retina …)
For B1, the “percent reduction of the interaction relative to CRB1 WT” value stood at 11%.
